Assay results reported in patent US20230189844.

How the values were obtained:
[1] = target: Soybean agglutinin (SBA) (UniProt P05046)
[2] = target: T1, Soy Bowman-Birk Inhibitor (UniProt P01055)
T1 sequence: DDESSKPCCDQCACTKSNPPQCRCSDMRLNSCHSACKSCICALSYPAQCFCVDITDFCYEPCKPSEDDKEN

[3] = target: T2, Soy Kunitz Inhibitor (Trypsin Inhibitor from soybean) (UniProt P01070)
T2 sequence: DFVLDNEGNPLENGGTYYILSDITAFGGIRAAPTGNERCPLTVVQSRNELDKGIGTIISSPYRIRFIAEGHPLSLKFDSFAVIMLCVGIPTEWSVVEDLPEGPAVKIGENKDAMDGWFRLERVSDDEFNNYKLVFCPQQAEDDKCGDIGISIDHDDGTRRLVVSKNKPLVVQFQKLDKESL

Sequence of Soybean agglutinin (SBA) (P05046 33-285): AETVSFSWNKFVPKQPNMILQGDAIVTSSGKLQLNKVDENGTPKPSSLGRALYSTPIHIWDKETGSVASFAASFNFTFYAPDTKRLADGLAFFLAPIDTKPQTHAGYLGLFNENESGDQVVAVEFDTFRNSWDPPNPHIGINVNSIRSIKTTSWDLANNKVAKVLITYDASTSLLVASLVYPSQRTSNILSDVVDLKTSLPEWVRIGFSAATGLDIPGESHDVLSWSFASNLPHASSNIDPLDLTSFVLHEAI

Protease derived from Bacillus sp. NCIMB 40484
% of anti-nutritional factor degraded (SDS-PAGE band disappearance, 2 hours, 37° C., pH 6.5) [1]: 21%
% of anti-nutritional factor degraded (SDS-PAGE band disappearance, 2 hours, 37° C., pH 6.5) [2]: 41%
% of anti-nutritional factor degraded (SDS-PAGE band disappearance, 2 hours, 37° C., pH 6.5) [3]: 100%
